Source: patent publication US20100196385A1 (AstraZeneca / MedImmune, published 2010)

B1: 1E4 (antibody, IgG2, V domains shown)
VH: QVQLVESGGGVVQPGRSLRLSCAASGFTFSSYGMHWVRQAPGKGLEWVAVTWYDGSNKYYADSVKGRFTISRDNSKNTLYLQMNSLRAEDTAVYYCARENCSSTSCYYTVTTDYYGMDVWGQGTTVTVSS
VL: EIVLTQSPGTLSLSPGERATLSCRASQRVSSSYLTWYQQKPGQAPRLLIYGASIRATGIPDRFSGSGSGTDFTLTITRLEPEDFAVYFCQQCYTSPITFGQGTRLDIK
notes: Fully human; also used where no isotype is printed
B2: 4B3 (antibody, IgG4, V domains shown)
VH: QVQLVQSGAEVRKSGASVKVSCKASGYSFTTYDINWVRQATGQGLEWMGWMNPNSGYTDYAQKFQGRVTLTRNMSIDTAYMELSSLRSEDTAVYYCARAYYYDSSAYYLFDYWGQGTLVTVSS
VL: DIQMTQSPSSLSASVGDRVTITCRASQGISNYLAWFQQKPGKAPKSLIYAASSLQSGVPSKFSGSGSGTDFTLTISSLQPEDFATYFCQQYISYPLTFGGGTKVEI
notes: as for B1
B3: 1D4 (antibody, IgG4, V domains shown)
VH: QLQLQESGPGLVKPSETLSLTCTVSGGSISSSSYYWGWIRQPPGKGLEWIGSFYYSRSTYYNPSLKSRVTISVDTSKNQFSLKLSSVTAADTAVHYCARGSIAVPDAFDIWGQGTMVTVSS
VL: SYELTQPPSVSVSPGQTASITCSGDKLGDKFACWYQQKPGHSPVLVVYQDNKRPSGIPERFSGSNSGNSATLTISGTQAMDEADYYCQAWDSNTAVFGGGTKLTVL
notes: Fully human XenoMouse antibody; also used where no isotype is printed
B4: 3A7 (antibody, IgG4, V domains shown)
VH: EVQVVESGGGLVQPGGSLRLSCEASGFTFSNYWMIWVRQAPGKGLEWVASIKEDGSEKYYVDSVKGRFTISRDNAKSSLYLQMNSLRAEDTAVYYCVRDWELRGHYYYHGMDVWGQGTTVTVSS
VL: DIQMTQSPSSLSASVGDRVTITCRASLDIRNDLGWFLQKPGKAPKRLIYAASSLQSGVPSRFSGSGSGTEFTLTINSLQPEDFATYYCLQHRNYPFTFGPGTKVDFK
notes: as for B1

Tests used:
full length human DLL4 [1] = target: T1, full length human DLL4 (human, UniProt Q9NR61 27-685); experiment: FMAT competition, supernatant vs Alexa-647 human Notch1/Fc, 293T cells with human DLL4
T1 construct: whole, on cells; also called native DLL4 expressed in HEK293 cells
Protocol: Transfected and untransfected 239T cells were reconstituted in PBS containing 2% FCS and 5000 transfected and 17500 non-transfected cells were plated in 20 μl into wells of a 384-well tissue culture plate (Corning Costar, catalog #3712). Subsequently, 20 μl of hybridoma supernatant was added and plates were incubated at 4° C. for 1 h, at which time 20 μl of Alexa-647 labeled human Notch1/Fc was added at a final concentration of 6.7 ng/ml. After a further 3 h incubation at 4° C., the amount of bound Notch1/Fc was determined by reading the fluorescence in each well using an FMAT 8200 instrument (Applied Biosystems). Results are expressed as % inhibitions with the minimum inhibition in the assay being determined by the effects of non-DLL4 binding supernatants prepared in a similar way as described in example 2, and the maximum inhibition being defined as the signal obtained in the presence of a saturating concentration of unlabeled Notch1/Fc. N.T.=not tested

[2] = target: DLL4 extracellular domain (R&D systems, catalog #1506-D4/CF) (UniProt Q9NR61 27-529, limits assumed); experiment: cell-based or functional assay
human Dll1 [3] = target: T2, human Dll1 (human, UniProt O00548 18-723); experiment: FACS, 15 µg/ml, 293T cells with human Dll1
T2 construct: whole, on cells
T2 sequence (looked up): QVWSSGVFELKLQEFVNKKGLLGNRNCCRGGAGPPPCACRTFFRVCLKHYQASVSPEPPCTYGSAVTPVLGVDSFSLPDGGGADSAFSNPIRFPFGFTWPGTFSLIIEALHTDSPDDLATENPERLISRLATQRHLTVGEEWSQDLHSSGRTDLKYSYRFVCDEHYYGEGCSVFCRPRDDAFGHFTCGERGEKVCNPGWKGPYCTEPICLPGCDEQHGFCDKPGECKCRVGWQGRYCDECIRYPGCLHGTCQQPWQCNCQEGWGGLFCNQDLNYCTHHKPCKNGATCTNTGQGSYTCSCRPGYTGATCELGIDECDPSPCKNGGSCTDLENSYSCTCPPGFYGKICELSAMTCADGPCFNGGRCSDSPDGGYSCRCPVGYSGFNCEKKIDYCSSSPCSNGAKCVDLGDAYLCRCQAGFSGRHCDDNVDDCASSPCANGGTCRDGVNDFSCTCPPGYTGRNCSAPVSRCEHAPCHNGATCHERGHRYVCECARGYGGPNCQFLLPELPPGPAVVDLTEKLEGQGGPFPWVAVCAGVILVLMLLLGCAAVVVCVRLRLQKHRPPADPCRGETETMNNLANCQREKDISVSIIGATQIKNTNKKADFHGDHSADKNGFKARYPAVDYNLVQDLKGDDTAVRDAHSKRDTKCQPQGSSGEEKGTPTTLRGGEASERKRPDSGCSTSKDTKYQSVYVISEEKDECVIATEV
Protocol: (§1) The ability of the purified antibodies to bind to human Jagged1 and Dll1 was determined by FACS analysis. […] Cells were resuspended in PBS containing 2% FCS and seeded at 50000 cells/well into V-bottomed plates. Anti-DLL4 antibodies diluted in PBS containing 2% FCS were added at a final concentration of 5 or 15 μg/ml and plates were incubated for 1 h at 4° C. […] Data was analyzed by comparing the shift in geometric mean fluorescence in the mock-transfected cells to that observed in the Jagged1- or Dll1-transfected cells and is shown in Tables 16 and 17.

human Jagged1 [4] = target: T3, human Jagged1 (human, UniProt P78504 34-1218); experiment: FMAT, hybridoma supernatant, 293T cells with human Jagged1
T3 construct: whole, on cells
Protocol: (§2) Cells diluted in PBS containing 2% FBS were seeded at a density of 3000 expressing and 15000 mock transfected cells per well in 384 well plates (Corning Costar, catalog #3712). Immediately after plating, 15 or 20 μl/well of hybridoma supernatants and 10 μl/well of secondary antibody (Goat anti-human IgG Fc Cy5, final concentration 750 ng/ml) were added and plates incubated for 3 h at room temperature prior to reading the fluorescence on the FMAT 8200 instrument (Applied Biosystems). The binding of human Notch1/Fc chimera (R&D systems, catalog #3647-TK), diluted 1:2 from 2.86 μg/ml was used as a positive control for DLL4 and human Notch3/Fc chimera diluted from 10 μg/ml was used a positive control for binding to Jagged1. Results for 12 hybridoma supernatants showing binding of hybridoma supernatants to human/cynomolgus monkey DLL4 and human Jagged are shown in Table 3.

full length human DLL4 [5] = target: T1, full length human DLL4; experiment: FMAT competition, purified antibody vs Alexa-647 human Notch1/Fc, 293T cells with human DLL4
Protocol: To discriminate between the purified antibodies based upon their ability to prevent the interaction between full-length recombinant DLL4 and soluble Notch1/Fc, the following assays were performed. Transfected and untransfected 239T cells were reconstituted in PBS containing 2% FCS and 5000 transfected and 17500 non-transfected cells were plated in 30 μl into wells of a 384-well tissue culture plate (Corning Costar, catalog #3712). Subsequently, 30 μl of purified antibodies, serial diluted from 5 μg/ml hybridoma supernatant was added and plates were incubated at 4° C. for 1 h, at which time 20 μl of 100 ng/ml Alexa-647 labeled human Notch1/Fc was added. After a further 3 h incubation at 4° C., the amount of bound Notch1/Fc was determined by reading the fluorescence in each well using an FMAT 8200 instrument (Applied Biosystems).

full length human DLL4 [6] = target: T1, full length human DLL4; experiment: FMAT, hybridoma supernatant, 293T cells with human DLL4
Protocol: as §2

human Dll1 [7] = target: T2, human Dll1; experiment: FACS, 15 µg/ml, 293T cells with human Dll1 vs mock
Protocol: as §1

human Jagged1 [8] = target: T3, human Jagged1; experiment: FACS, 5 µg/ml, 293T cells with human Jagged1 vs mock
Protocol: as §1

human Jagged1 [9] = target: T3, human Jagged1; experiment: FACS, 5 µg/ml, 293T cells with human Jagged1
Protocol: as §1

T1 sequence (Q9NR61 27-685): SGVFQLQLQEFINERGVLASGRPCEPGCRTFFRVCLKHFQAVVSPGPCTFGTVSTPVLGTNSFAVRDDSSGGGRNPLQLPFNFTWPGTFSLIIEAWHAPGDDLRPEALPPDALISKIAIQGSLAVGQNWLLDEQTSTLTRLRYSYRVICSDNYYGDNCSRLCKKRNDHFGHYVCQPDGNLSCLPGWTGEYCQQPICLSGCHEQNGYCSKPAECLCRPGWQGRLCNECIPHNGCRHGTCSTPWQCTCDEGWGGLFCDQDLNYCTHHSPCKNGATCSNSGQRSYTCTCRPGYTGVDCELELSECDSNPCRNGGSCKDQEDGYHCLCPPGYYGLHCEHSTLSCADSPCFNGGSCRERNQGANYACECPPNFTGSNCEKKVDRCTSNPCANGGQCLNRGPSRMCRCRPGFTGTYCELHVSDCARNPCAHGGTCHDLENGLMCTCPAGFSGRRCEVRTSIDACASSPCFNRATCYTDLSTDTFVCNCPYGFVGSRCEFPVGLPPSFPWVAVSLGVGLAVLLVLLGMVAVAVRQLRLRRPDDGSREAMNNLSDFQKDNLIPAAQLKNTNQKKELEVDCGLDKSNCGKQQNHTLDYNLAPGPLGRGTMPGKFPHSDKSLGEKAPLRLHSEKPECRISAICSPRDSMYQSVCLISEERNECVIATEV
Sequence of DLL4 extracellular domain (R&D systems, catalog #1506-D4/CF) (Q9NR61 27-529 limits assumed): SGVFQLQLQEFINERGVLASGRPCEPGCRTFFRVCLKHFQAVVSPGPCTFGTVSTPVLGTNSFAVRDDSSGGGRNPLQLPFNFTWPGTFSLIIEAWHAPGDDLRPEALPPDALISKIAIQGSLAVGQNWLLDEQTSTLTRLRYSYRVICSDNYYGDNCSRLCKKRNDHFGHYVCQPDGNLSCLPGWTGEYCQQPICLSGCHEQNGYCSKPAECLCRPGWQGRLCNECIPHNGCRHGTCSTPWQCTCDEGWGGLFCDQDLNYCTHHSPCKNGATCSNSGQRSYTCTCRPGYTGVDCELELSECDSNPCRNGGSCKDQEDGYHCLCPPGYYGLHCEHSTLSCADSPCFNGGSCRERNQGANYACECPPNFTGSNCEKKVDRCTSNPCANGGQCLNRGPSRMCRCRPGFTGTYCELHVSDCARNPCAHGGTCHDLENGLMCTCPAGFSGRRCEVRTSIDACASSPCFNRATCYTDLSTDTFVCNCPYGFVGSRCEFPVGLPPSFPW
T3 sequence (P78504 34-1218): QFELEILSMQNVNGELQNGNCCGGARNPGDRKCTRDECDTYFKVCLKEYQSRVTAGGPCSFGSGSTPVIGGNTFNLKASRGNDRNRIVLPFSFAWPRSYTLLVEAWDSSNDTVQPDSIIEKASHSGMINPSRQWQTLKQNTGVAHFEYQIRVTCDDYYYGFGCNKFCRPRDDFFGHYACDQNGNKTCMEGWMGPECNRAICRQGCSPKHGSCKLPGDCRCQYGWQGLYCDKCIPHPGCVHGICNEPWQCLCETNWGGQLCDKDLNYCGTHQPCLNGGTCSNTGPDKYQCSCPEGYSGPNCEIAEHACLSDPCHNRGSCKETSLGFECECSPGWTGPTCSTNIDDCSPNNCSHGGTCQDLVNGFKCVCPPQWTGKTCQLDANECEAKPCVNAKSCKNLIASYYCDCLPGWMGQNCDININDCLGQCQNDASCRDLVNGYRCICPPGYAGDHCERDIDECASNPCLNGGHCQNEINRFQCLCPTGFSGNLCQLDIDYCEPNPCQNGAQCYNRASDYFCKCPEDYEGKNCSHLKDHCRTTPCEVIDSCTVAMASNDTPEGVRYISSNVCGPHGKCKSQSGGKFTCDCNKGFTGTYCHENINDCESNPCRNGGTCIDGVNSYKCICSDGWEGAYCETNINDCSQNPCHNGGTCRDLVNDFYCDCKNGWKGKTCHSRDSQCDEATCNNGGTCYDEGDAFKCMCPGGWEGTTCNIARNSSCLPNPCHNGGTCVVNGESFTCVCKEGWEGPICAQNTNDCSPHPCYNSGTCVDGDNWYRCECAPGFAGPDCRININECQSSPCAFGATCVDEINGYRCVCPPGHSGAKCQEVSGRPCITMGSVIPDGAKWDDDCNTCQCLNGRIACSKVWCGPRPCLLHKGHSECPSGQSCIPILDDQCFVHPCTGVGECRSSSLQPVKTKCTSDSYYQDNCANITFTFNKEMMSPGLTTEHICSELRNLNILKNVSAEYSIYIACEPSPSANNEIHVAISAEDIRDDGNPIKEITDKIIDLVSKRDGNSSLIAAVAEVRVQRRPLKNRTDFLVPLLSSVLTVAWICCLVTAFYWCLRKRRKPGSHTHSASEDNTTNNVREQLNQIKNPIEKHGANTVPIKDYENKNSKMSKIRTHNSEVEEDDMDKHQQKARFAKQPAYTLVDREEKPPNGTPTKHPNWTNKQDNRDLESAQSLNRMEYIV

Binder	% inhibition n = 1 (full length human DLL4 [1]) [%]	% inhibition n = 2 (full length human DLL4 [1]) [%]	% inhibition n = 3 (full length human DLL4 [1]) [%]	Mean % inhibition (full length human DLL4 [1]) [%]	% inhibition 1 µg/ml, AVERAGE (HUVEC proliferation on coated DLL4) [2] [%]	% inhibition 1 µg/ml, N = 1 (HUVEC proliferation on coated DLL4) [2] [%]	% inhibition 1 µg/ml, N = 2 (HUVEC proliferation on coated DLL4) [2] [%]	% inhibition 10 µg/ml, AVERAGE (HUVEC proliferation on coated DLL4) [2] [%]	% inhibition 10 µg/ml, N = 1 (HUVEC proliferation on coated DLL4) [2] [%]	% inhibition 10 µg/ml, N = 2 (HUVEC proliferation on coated DLL4) [2] [%]	Dll1/293T X Geo mean (human Dll1 [3])	Count (human Jagged1 [4])	FL1 (human Jagged1 [4])	FL1 x count (human Jagged1 [4])	% inhibition at 0.020 nM (full length human DLL4 [5]) [%]	% inhibition at 0.070 nM (full length human DLL4 [5]) [%]	% inhibition at 0.21 nM (full length human DLL4 [5]) [%]	% inhibition at 0.62 nM (full length human DLL4 [5]) [%]	% inhibition at 1.9 nM (full length human DLL4 [5]) [%]	% inhibition at 5.6 nM (full length human DLL4 [5]) [%]	other results
B1	98	99	113	110	74	73	75	82	81	82	31.7	2	8020	16000	-7	24	21	46	91	129	% inhibition at 16.7 nM (full length human DLL4 [5]): 120%; IC50 (full length human DLL4 [5]): 0.99 nM; Count (full length human DLL4 [6]): 206; FL1 (full length human DLL4 [6]): 10400; FL1 x count (full length human DLL4 [6]): 2.14e+06; Dll1/mock ratio (human Dll1 [7]): 1.15; Jagged1/mock ratio (human Jagged1 [8]): 1.13; Jagged1/293T X Geo mean (human Jagged1 [9]): 16.9
B2	106	145	147	133	31	20	41	44	38	49	30.6	2	4720	9450	-1	5	-3	20	40	89	% inhibition at 16.7 nM (full length human DLL4 [5]): 117%; IC50 (full length human DLL4 [5]): 3.33 nM; Count (full length human DLL4 [6]): 206; FL1 (full length human DLL4 [6]): 11000; FL1 x count (full length human DLL4 [6]): 2.27e+06; Dll1/mock ratio (human Dll1 [7]): 1.17; Jagged1/mock ratio (human Jagged1 [8]): 1.04; Jagged1/293T X Geo mean (human Jagged1 [9]): 18.7
B3	105	71	146	107	45	43	46	72	73	71	35.3	23	3250	74800	7	-2	5	13	58	124	% inhibition at 16.7 nM (full length human DLL4 [5]): 123%; IC50 (full length human DLL4 [5]): 2 nM; Count (full length human DLL4 [6]): 196; FL1 (full length human DLL4 [6]): 10600; FL1 x count (full length human DLL4 [6]): 2.08e+06; Dll1/mock ratio (human Dll1 [7]): 1.09; Jagged1/mock ratio (human Jagged1 [8]): 1.01; Jagged1/293T X Geo mean (human Jagged1 [9]): 16.8
B4	105	120	142	122	65	50	80	90	74	106	36.8	1	1940	1940	-1	7	-1	19	39	82	% inhibition at 16.7 nM (full length human DLL4 [5]): 104%; IC50 (full length human DLL4 [5]): 2.94 nM; Count (full length human DLL4 [6]): 166; FL1 (full length human DLL4 [6]): 9470; FL1 x count (full length human DLL4 [6]): 1.57e+06; Dll1/mock ratio (human Dll1 [7]): 1.06; Jagged1/mock ratio (human Jagged1 [8]): 1.1; Jagged1/293T X Geo mean (human Jagged1 [9]): 16.4
